Test results from the supplement of paper PMC9112550, “Optimization of the antimicrobial peptide Bac7 by deep mutational scanning” (BMC Biology, 2022).

Tested on: Escherichia coli TOP10
Assay: shrunken log2 fold change of peptide-encoding DNA abundance (4.5 h post-induction vs induction); higher = less antimicrobial activity (less host growth inhibition)
Details: time post-induction: 4.5 h; library: site-saturation at positions 5, 18, 19, 20
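Also: peptides expressed intracellularly from a pBAD plasmid library in pooled LB shake-flask culture, induced with 0.3% L-arabinose, DNA abundance read by NGS, three biological replicates, DESeq2 with apeglm shrinkage.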

Sequence | shrunken log2 fold change
RRIRLRPPRLPRPRPRPGTFPRP | 0.0118
RRIRLRPPRLPRPRPRPGVQPRP | 0.0642
RRIRLRPPRLPRPRPRPGWNPRP | 0.000784
RRIRLRPPRLPRPRPRPGYDPRP | -0.233
RRIRLRPPRLPRPRPRPHAEPRP | -0.203
RRIRLRPPRLPRPRPRPHAPPRP | 0.304
RRIRLRPPRLPRPRPRPHCEPRP | -0.00711
RRIRLRPPRLPRPRPRPHCFPRP | -0.0782
RRIRLRPPRLPRPRPRPHCSPRP | -0.747
RRIRLRPPRLPRPRPRPHDTPRP | -0.18
RRIRLRPPRLPRPRPRPHEEPRP | 0.13
RRIRLRPPRLPRPRPRPHEHPRP | -0.109
RRIRLRPPRLPRPRPRPHEYPRP | -0.0491
RRIRLRPPRLPRPRPRPHGAPRP | 0.0606
RRIRLRPPRLPRPRPRPHGDPRP | -0.0331
RRIRLRPPRLPRPRPRPHGEPRP | 0.191
RRIRLRPPRLPRPRPRPHGKPRP | -0.191
RRIRLRPPRLPRPRPRPHGNPRP | -0.186
RRIRLRPPRLPRPRPRPHGYPRP | -0.528
RRIRLRPPRLPRPRPRPHHFPRP | -0.128

Sequence | shrunken log2 fold change
RRIRLRPPRLPRPRPRPHHLPRP | -0.24
RRIRLRPPRLPRPRPRPHHQPRP | -0.162
RRIRLRPPRLPRPRPRPHLYPRP | 0.61
RRIRLRPPRLPRPRPRPHMDPRP | -0.549
RRIRLRPPRLPRPRPRPHMPPRP | -0.222
RRIRLRPPRLPRPRPRPHPTPRP | -0.094
RRIRLRPPRLPRPRPRPHRIPRP | -0.0339
RRIRLRPPRLPRPRPRPHRWPRP | -0.0172
RRIRLRPPRLPRPRPRPHSEPRP | -0.431
RRIRLRPPRLPRPRPRPHSKPRP | -0.129
RRIRLRPPRLPRPRPRPHSSPRP | 0.0594
RRIRLRPPRLPRPRPRPIAIPRP | 0.12
RRIRLRPPRLPRPRPRPIARPRP | -0.0553
RRIRLRPPRLPRPRPRPICTPRP | -0.243
RRIRLRPPRLPRPRPRPIDCPRP | -0.00194
RRIRLRPPRLPRPRPRPIDPPRP | -0.379
RRIRLRPPRLPRPRPRPIDSPRP | -0.0384
RRIRLRPPRLPRPRPRPIFEPRP | -0.0366
RRIRLRPPRLPRPRPRPIGEPRP | -0.169
RRIRLRPPRLPRPRPRPIHGPRP | -0.0797

Sequence | shrunken log2 fold change
RRIRLRPPRLPRPRPRPIHHPRP | -0.246
RRIRLRPPRLPRPRPRPIIGPRP | -0.0425
RRIRLRPPRLPRPRPRPIINPRP | -0.448
RRIRLRPPRLPRPRPRPIKWPRP | -0.412
RRIRLRPPRLPRPRPRPIMSPRP | -0.2
RRIRLRPPRLPRPRPRPIMWPRP | -0.0155
RRIRLRPPRLPRPRPRPINLPRP | -0.573
RRIRLRPPRLPRPRPRPINTPRP | -0.881
RRIRLRPPRLPRPRPRPIPAPRP | -0.112
RRIRLRPPRLPRPRPRPISVPRP | -0.343
RRIRLRPPRLPRPRPRPITGPRP | -0.0243
RRIRLRPPRLPRPRPRPITMPRP | -0.168
RRIRLRPPRLPRPRPRPIVRPRP | -0.151
RRIRLRPPRLPRPRPRPIYIPRP | -1.1
RRIRLRPPRLPRPRPRPKCLPRP | 0.117
RRIRLRPPRLPRPRPRPKEFPRP | -0.0126
RRIRLRPPRLPRPRPRPKEMPRP | 0.0765
RRIRLRPPRLPRPRPRPKFAPRP | 0.293
RRIRLRPPRLPRPRPRPKFVPRP | -0.055
RRIRLRPPRLPRPRPRPKGGPRP | 0.01
